Test results from publication PMC6741145.

Biological target: His6‐tagged DP1 (small subunit of DNA polymerase D) of Thermococcus sp. 4557 (Thermococcus sp. 4557)
Experiment: SEC; 100 µg of each protein or mixture on Superdex‐200 HR10/30 in 25 mM Tris‐HCl pH 7.5, 100 mM NaCl, 10% glycerol; fractions on SDS–PAGE, Coomassie

stoichiometry N: 2
Substance: His6‐tagged DP1 (small subunit of DNA polymerase D) of Thermococcus sp. 4557 (enzyme)
